Measured values taken from paper PMC4231769, “The Werner syndrome protein limits the error-prone 8-oxo-dG lesion bypass activity of human DNA polymerase kappa” (Nucleic Acids Research, 2014).

T1: GST-tagged hpol κ^19-526 (human DNA polymerase kappa catalytic core) (human, UniProt Q9UBT6 19-526)
T1 construct: human DNA polymerase kappa (hpol κ), residues 19-526, catalytic core; The pull-downs used GST-tagged hpol κ^19-526; The polymerase assays (functional rows) name hpol κ^19-526 without a GST tag; also called GST-hpol κ; source: recombinant, purified
T1 sequence (looked up): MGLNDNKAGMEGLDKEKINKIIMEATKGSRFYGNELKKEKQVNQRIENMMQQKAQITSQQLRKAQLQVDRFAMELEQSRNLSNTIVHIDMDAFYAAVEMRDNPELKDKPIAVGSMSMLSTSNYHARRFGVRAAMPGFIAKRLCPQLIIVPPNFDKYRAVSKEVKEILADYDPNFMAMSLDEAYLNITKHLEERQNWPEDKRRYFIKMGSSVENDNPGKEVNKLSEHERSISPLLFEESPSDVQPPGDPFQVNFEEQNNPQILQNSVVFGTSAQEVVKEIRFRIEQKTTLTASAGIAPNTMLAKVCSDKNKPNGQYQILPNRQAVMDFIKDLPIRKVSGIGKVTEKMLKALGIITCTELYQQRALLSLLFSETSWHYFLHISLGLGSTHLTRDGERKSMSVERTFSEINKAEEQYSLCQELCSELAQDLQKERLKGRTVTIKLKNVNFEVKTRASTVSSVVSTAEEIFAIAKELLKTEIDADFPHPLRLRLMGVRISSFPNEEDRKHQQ


Target: T1, GST-tagged hpol κ^19-526 (human DNA …)
Assay: pull-down; GST-hpol κ^19-526 on glutathione Sepharose beads (~1200 pmol), WRN construct 1 μM (~500 pmol) in 500 μl; 25 mM HEPES pH 7.5, 0.1 M NaCl, 10% glycerol, 5 mM β-ME; 16 h at 4°C; Coomassie-stained SDS-PAGE; specific binding = fraction bound to GST-hpol κ beads divided by fraction bound to GST-coated beads
Settings: both partners purified

| binding result | fold bound to GST-hpol κ beads over GST beads | Binder |
| --- | --- | --- |
| binds |  | WRN^1-333 exo domain (domain or fragment, UniProt Q14191 1-333, looked up, also called WRN exo) MSEKKLETTAQQRKCPEWMNVQNKRCAVEERKACVRKSVFEDDLPFLEFTGSIVYSYDASDCSFLSEDISMSLSDGDVVGFDMEWPPLYNRGKLGKVALIQLCVSESKCYLFHVSSMSVFPQGLKMLLENKAVKKAGVGIEGDQWKLLRDFDIKLKNFVELTDVANKKLKCTETWSLNSLVKHLLGKQLLKDKSIRCSNWSKFPLTEDQKLYAATDAYAGFIIYRNLEILDDTVQRFAINKEEEILLSDMNKQLTSISEEVMDLAKHLPHAFSKLENPRRVSILLKDISENLYSLRRMIIGSTNIETELRPSNNLNLLSFEDSTTGGVQQKQI |
|  | ~2 fold | WRN^500-1092 ATPase/RQC construct (domain or fragment, source: E. coli BL21 (DE3) Gold, purified (Ni Sepharose, Glutathione Sepharose, HRV 3C cleavage); not shown: 6xHis, N-terminal, cleaved; GST, N-terminal, cleaved) not shown |
|  | ~3 fold | WRN^949-1092 RQC domain (domain or fragment, UniProt Q14191 949-1092, looked up, source: E. coli BL21 (DE3) Gold, purified (Ni Sepharose, Glutathione Sepharose, HRV 3C cleavage); not shown: 6xHis, N-terminal, cleaved; GST, N-terminal, cleaved) MDDSEDTSWDFGPQAFKLLSAVDILGEKFGIGLPILFLRGSNSQRLADQYRRHSLFGTGKDQTESWWKAFSRQLITEGFLVEVSRYNKFMKICALTKKGRNWLHKANTESQSLILQANEELCPKKLLLPSSKTVSSGTKEHCYN |
